# B1: Acsl3 (Rattus norvegicus) (protein)
# chain: MNNHVSSTPSTMKLKQTIHPILLYFIHFIISLYTILTYIPFYFLCESKQEKPNHIKAKPVSSKPDSAYRSVNSMDGLASVLYPGCDTLDKVFMYAKNKFKDKRLLGTREILNEEDEIQPNGKVFKKVILGHYNWLSYEDVFIRALDFGNGLQMLGQKPKANIAIFCETRAEWMIAAQACFMYNFQLVTLYATLGGPAIVHGLNETEVTNIITSKELLQTKLKDIVSLVPRLRHIITVDGKPPTWSEFPKGVIVHTMAAVQALGVKADVDKKAHSKPLPSDIAVIMYTSGSTGIPKGVMISHSNIIASITGMARRIPRLGEEDVYIGYLPLAHVLELSAELVCLSHGCRIGYSSPQTLADQSSKIKKGSKGDTSVLKPTLMAAVPEIMDRIYKNVMNKVNEMSAFQRNLFILAYNYKMEQISKGCSTPLCDRFVFRNVRRLLGGNIRVLLCGGAPLSATTQRFMNICFCCPVGQGYGLTESTGAGTITEVWDYNTGRVGAPLVCCEIKLKNWEEGGYFNTDKPHPRGEILIGGQNVTMGYYKNEAKTKADFFEDENGQRWLCTGDIGEFDPDGCLKIIDRKKDLVKLQAGEYVSLGKVEAALKNLPLIDNICAYANSYHSYVIGFVVPNQKELTELARTKGFNGTWEELCNSSEMENEVLKVLSEAAISASLEKFEIPLKIRLSPDPWTPETGLVTDAFKLKRKELKTHYQADIERMYGRK
# Substrate: CCCCC/C=C\C/C=C\C/C=C\C/C=C\CCCC(=O)O
# Assay: radiometric acyl-CoA synthetase assay
# Assay type: biochemical, Rattus norvegicus
# Details: ATP, Mg2+
protein,measurement,value
B1,Km,48 µM
same,Vmax,0.008 µmol/min/mg
same,Vmax/Km,3e-05 min⁻¹

# Reference: article PMC3037030
